Source: the supplement of paper PMC10567573

B1: CDS2 (parent)
chain: IHSIALSTFASLIGPFGGFFASGF
B2: MLL5 (parent)
chain: EQIAERKRKMVSWEASSLGLVTAA

Variants of: B1
Experiment: protein stability index of a GFP-peptide fusion (GPS, HEK-293T) (PSI 1-6); higher = more stable
Settings: c terminus: a fixed tail appended
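Further: lentivirally expressed fusions sorted by FACS into six bins by GFP to DsRed ratio, PSI derived from sequencing read proportions per bin multiplied by bin number.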

Protein stability index: each site, then its substitutions
F24: G 4.4, D 3.08, I 2.91, C 4.83, T 3.42, A 2.18, H 3.27, Y 2.52, N 3.11, W 3.66, V 3.32, S 2.63, M 2.8, P 3.79, Q 2.45, L 3.68
G23: Y 2.63, T 2.53, Q 2.79, N 3.46, S 1.46, P 2.73, V 2.14

Variants of: B2
Experiment: as above
Settings: c terminus: a fixed tail appended

Protein stability index of substitutions, site by site:
E5: G 2.95, N 2.07, A 2.25, V 2.44, F 2.68, S 2.13, Q 2.79, H 2.12, K 3.08, I 2.33, W 1.8, P 3.01, D 3.49, C 1.87
I3: R 2.76, C 2.46, H 3.7, D 4.19, Y 3.14, Q 3.09, F 2.72, S 3.05, K 3.1, P 3.56, E 2.29, L 3.07, A 3.18, T 3.88, G 3.29, N 3.64, V 3.63
E1: T 2.67, F 1.42, G 3.27, K 4, N 3.06, D 3.35, M 2.41, Y 2.41, C 1.44, I 2.78, P 3.16, Q 3.2, V 2.55, R 2.77, A 2.18, L 2.53, W 1.69
K9: Y 2.97, T 2.31, A 2.52, S 3.51, R 3.06, N 3.84, C 1.53, I 2.34, W 1.88, M 2.38, G 3.73, H 1.76, L 2.27, F 2.06, Q 2.59, E 3.52, V 2.46
A4: L 2.95, V 2.56, P 3.85, D 3.67, S 3.34, K 3.36, Y 2.8, I 2.38, H 3.39, R 3.59, Q 2.34
Q2: N 2.37, K 3.05, S 2.55, M 2.21, C 1.97, A 2.75, P 2.84, H 2.68, F 2.58, D 3.66, V 2.79, T 3.25
R6: K 3.18, Q 2.76, N 3, H 2.98, A 4.14, L 2.65, I 1.65, C 3.24, W 2.09, T 3.54, Y 2.78, E 3.56, D 3.98, G 3.38, F 2.67, M 2.88
R8: M 3.17, E 3.98, D 2.85, S 2.97, K 3.56, P 3.25, V 2.65, Y 2.86, A 3.81, L 2.79, N 2.82, H 3.64, T 3.89, W 2.72, C 2.76, I 2.66, F 2.01
M10: F 2.93, A 3.83, I 2.81, G 4.16, E 4.23, N 3.5, D 4.4, H 3.44, K 3.7, L 3.56, C 3.29
K7: F 2.74, M 1.7, H 3.36, Q 3.21, Y 2.29, G 2.93, E 4.03, L 1.97, I 2.98, C 2.19, T 2.69, V 3.02
